# T1: HTRA3, P83110
# T1 sequence (P83110 354-453, limits assumed, looked up): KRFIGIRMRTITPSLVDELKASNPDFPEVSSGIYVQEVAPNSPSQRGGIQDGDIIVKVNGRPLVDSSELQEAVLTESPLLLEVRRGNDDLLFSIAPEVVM
# T2: DVL3, Q92997
# T2 sequence (Q92997 244-331, limits assumed, looked up): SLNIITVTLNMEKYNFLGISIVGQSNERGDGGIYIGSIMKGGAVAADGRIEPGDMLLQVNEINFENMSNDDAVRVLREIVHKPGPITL
# T3: MPDZ_12, O75970
# T3 sequence (O75970 1857-1958, limits assumed, looked up): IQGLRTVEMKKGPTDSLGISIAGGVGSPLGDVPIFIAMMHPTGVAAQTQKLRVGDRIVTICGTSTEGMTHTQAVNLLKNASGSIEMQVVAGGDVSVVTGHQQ
# T4: LNX2_3, Q8N448
# T4 sequence (Q8N448 463-564, limits assumed, looked up): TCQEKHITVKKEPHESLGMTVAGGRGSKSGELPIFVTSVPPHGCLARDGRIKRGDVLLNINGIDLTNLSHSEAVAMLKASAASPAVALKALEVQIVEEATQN
# T5: LRRC7, Q96NW7
# T5 sequence (Q96NW7 1440-1537, limits assumed, looked up): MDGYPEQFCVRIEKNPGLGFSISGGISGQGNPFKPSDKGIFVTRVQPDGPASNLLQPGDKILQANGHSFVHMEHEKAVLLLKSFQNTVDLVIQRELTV
# T6: GRIP1_7, Q9Y3R0
# T6 sequence (Q9Y3R0 999-1096, limits assumed, looked up): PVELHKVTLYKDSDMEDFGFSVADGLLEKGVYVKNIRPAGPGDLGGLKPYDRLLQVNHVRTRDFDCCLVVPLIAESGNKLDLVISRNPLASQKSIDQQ
# T7: CARD11, Q9BXL7
# T7 sequence (Q9BXL7 662-765, limits assumed, looked up): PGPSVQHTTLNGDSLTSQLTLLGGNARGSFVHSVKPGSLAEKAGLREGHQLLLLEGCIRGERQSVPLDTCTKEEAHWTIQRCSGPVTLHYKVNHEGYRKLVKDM
# T8: ARHGEF11, O15085
# T8 sequence (O15085 42-136, limits assumed, looked up): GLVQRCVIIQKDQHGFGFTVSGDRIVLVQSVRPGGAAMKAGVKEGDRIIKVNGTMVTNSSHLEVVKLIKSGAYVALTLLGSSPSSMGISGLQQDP
# T9: GRIP1_3, Q9Y3R0
# T9 sequence (Q9Y3R0 247-346, limits assumed, looked up): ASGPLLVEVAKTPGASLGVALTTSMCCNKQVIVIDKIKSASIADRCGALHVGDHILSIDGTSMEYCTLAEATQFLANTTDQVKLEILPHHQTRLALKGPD
# T10: RHPN1, Q8TCX5
# T10 sequence (Q8TCX5 508-602, limits assumed, looked up): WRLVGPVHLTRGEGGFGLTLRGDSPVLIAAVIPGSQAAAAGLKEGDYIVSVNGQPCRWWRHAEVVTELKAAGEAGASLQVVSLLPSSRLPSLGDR
# Target: IL16_1, Q14005
# Assay: holdup assay
# Set-up: key: below the threshold = too weak to quantify, mostly under pKd 3.1 to 4
# Details: plain residues with an end cap or a label only (N-terminal biotin on a linker: ado-ado)
# Chain of IL16_1, Q14005 (Q14005 210-306): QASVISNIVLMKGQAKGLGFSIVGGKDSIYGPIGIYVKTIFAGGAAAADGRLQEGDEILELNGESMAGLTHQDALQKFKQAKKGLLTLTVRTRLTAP
row,Binder,pKd
1,"PDGEMMEVLI [AMOTL1, Q8IY63]",below the threshold
2,"VISERNSTTV [C3AR1, Q16581]",below the threshold

# Target: NHERF4_1, Q86UT5-2
# Assay: holdup assay
# Set-up: key: below the threshold = too weak to quantify, mostly under pKd 3.1 to 4
# Details: plain residues with an end cap or a label only (N-terminal biotin on a linker: ado-ado)
# Chain of NHERF4_1, Q86UT5-2 (Q86UT5 other isoform, or with tags, fused parts or gaps): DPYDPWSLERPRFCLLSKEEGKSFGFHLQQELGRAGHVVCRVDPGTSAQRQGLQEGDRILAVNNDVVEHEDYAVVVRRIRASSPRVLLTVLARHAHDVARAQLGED
row,Binder,pKd
1,"PDGEMMEVLI [AMOTL1, Q8IY63]",below the threshold
2,"VISERNSTTV [C3AR1, Q16581]",below the threshold

# Target: T1, HTRA3, P83110
# Assay: holdup assay
# Set-up: key: below the threshold = too weak to quantify, mostly under pKd 3.1 to 4
# Details: plain residues with an end cap or a label only (N-terminal biotin on a linker: ado-ado)
row,Binder,pKd
1,"PDGEMMEVLI [AMOTL1, Q8IY63]",below the threshold
2,"VISERNSTTV [C3AR1, Q16581]",below the threshold

# Target: T2, DVL3, Q92997
# Assay: holdup assay
# Set-up: key: below the threshold = too weak to quantify, mostly under pKd 3.1 to 4
# Details: plain residues with an end cap or a label only (N-terminal biotin on a linker: ado-ado)
row,Binder,pKd
1,"PDGEMMEVLI [AMOTL1, Q8IY63]",below the threshold
2,"VISERNSTTV [C3AR1, Q16581]",below the threshold

# Target: T3, MPDZ_12, O75970
# Assay: holdup assay
# Set-up: key: below the threshold = too weak to quantify, mostly under pKd 3.1 to 4
# Details: plain residues with an end cap or a label only (N-terminal biotin on a linker: ado-ado)
row,Binder,pKd
1,"PDGEMMEVLI [AMOTL1, Q8IY63]",below the threshold
2,"VISERNSTTV [C3AR1, Q16581]",below the threshold

# Target: MAGI1_2, Q96QZ7
# Assay: holdup assay
# Set-up: key: below the threshold = too weak to quantify, mostly under pKd 3.1 to 4
# Details: plain residues with an end cap or a label only (N-terminal biotin on a linker: ado-ado)
# Chain of MAGI1_2, Q96QZ7 (Q96QZ7 456-580): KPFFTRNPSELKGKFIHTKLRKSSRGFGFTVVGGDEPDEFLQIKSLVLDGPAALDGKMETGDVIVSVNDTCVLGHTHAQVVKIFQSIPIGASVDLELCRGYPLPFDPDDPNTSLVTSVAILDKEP
row,Binder,pKd
1,"PDGEMMEVLI [AMOTL1, Q8IY63]",below the threshold
2,"VISERNSTTV [C3AR1, Q16581]",4.4

# Target: T4, LNX2_3, Q8N448
# Assay: holdup assay
# Set-up: key: below the threshold = too weak to quantify, mostly under pKd 3.1 to 4
# Details: plain residues with an end cap or a label only (N-terminal biotin on a linker: ado-ado)
row,Binder,pKd
1,"PDGEMMEVLI [AMOTL1, Q8IY63]",below the threshold
2,"VISERNSTTV [C3AR1, Q16581]",below the threshold

# Target: LNX1_3, Q8TBB1
# Assay: holdup assay
# Set-up: key: below the threshold = too weak to quantify, mostly under pKd 3.1 to 4
# Details: plain residues with an end cap or a label only (N-terminal biotin on a linker: ado-ado)
# Chain of LNX1_3, Q8TBB1 (Q8TBB1 500-596): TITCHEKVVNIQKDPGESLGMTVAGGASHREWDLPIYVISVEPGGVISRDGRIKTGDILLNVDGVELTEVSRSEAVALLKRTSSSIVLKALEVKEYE
row,Binder,pKd
1,"PDGEMMEVLI [AMOTL1, Q8IY63]",below the threshold
2,"VISERNSTTV [C3AR1, Q16581]",below the threshold

# Target: GIPC2, Q8TF65
# Assay: holdup assay
# Set-up: key: below the threshold = too weak to quantify, mostly under pKd 3.1 to 4
# Details: plain residues with an end cap or a label only (N-terminal biotin on a linker: ado-ado)
# Chain of GIPC2, Q8TF65 (Q8TF65 112-203): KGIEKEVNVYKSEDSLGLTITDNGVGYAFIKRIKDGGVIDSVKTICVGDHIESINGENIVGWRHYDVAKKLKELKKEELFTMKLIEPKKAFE
row,Binder,pKd
1,"PDGEMMEVLI [AMOTL1, Q8IY63]",below the threshold
2,"VISERNSTTV [C3AR1, Q16581]",below the threshold

# Target: GRIP2_5, Q9C0E4
# Assay: holdup assay
# Set-up: key: below the threshold = too weak to quantify, mostly under pKd 3.1 to 4
# Details: plain residues with an end cap or a label only (N-terminal biotin on a linker: ado-ado)
# Chain of GRIP2_5, Q9C0E4 (Q9C0E4 544-642): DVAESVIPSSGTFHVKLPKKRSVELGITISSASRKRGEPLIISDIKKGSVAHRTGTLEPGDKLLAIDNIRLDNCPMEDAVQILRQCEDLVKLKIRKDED
row,Binder,pKd
1,"PDGEMMEVLI [AMOTL1, Q8IY63]",below the threshold
2,"VISERNSTTV [C3AR1, Q16581]",below the threshold

# Target: T5, LRRC7, Q96NW7
# Assay: holdup assay
# Set-up: key: below the threshold = too weak to quantify, mostly under pKd 3.1 to 4
# Details: plain residues with an end cap or a label only (N-terminal biotin on a linker: ado-ado)
row,Binder,pKd
1,"PDGEMMEVLI [AMOTL1, Q8IY63]",below the threshold
2,"VISERNSTTV [C3AR1, Q16581]",below the threshold

# Target: SCRIB_1, Q14160
# Assay: holdup assay
# Set-up: key: below the threshold = too weak to quantify, mostly under pKd 3.1 to 4
# Details: plain residues with an end cap or a label only (N-terminal biotin on a linker: ado-ado)
# Chain of SCRIB_1, Q14160 (Q14160 718-814): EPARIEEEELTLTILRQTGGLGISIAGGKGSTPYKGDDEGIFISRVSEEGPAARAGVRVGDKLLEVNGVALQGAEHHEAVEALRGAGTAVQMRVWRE
row,Binder,pKd
1,"PDGEMMEVLI [AMOTL1, Q8IY63]",below the threshold
2,"VISERNSTTV [C3AR1, Q16581]",3.72

# Target: LNX1_1, Q8TBB1
# Assay: holdup assay
# Set-up: key: below the threshold = too weak to quantify, mostly under pKd 3.1 to 4
# Details: plain residues with an end cap or a label only (N-terminal biotin on a linker: ado-ado)
# Chain of LNX1_1, Q8TBB1 (Q8TBB1 261-371): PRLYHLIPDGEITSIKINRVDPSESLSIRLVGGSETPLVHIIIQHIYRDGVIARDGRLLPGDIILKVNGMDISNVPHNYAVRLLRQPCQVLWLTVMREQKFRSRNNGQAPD
row,Binder,pKd
1,"PDGEMMEVLI [AMOTL1, Q8IY63]",below the threshold
2,"VISERNSTTV [C3AR1, Q16581]",3.61

# Target: T6, GRIP1_7, Q9Y3R0
# Assay: holdup assay
# Set-up: key: below the threshold = too weak to quantify, mostly under pKd 3.1 to 4
# Details: plain residues with an end cap or a label only (N-terminal biotin on a linker: ado-ado)
row,Binder,pKd
1,"PDGEMMEVLI [AMOTL1, Q8IY63]",below the threshold
2,"VISERNSTTV [C3AR1, Q16581]",below the threshold

# Target: DLG5_1, Q8TDM6
# Assay: holdup assay
# Set-up: key: below the threshold = too weak to quantify, mostly under pKd 3.1 to 4
# Details: plain residues with an end cap or a label only (N-terminal biotin on a linker: ado-ado)
# Chain of DLG5_1, Q8TDM6 (Q8TDM6 617-713): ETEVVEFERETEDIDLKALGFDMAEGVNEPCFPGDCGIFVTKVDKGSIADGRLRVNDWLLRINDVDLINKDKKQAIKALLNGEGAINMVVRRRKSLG
row,Binder,pKd
1,"PDGEMMEVLI [AMOTL1, Q8IY63]",below the threshold
2,"VISERNSTTV [C3AR1, Q16581]",below the threshold

# Target: GRASP, Q7Z6J2
# Assay: holdup assay
# Set-up: key: below the threshold = too weak to quantify, mostly under pKd 3.1 to 4
# Details: plain residues with an end cap or a label only (N-terminal biotin on a linker: ado-ado)
# Chain of GRASP, Q7Z6J2 (Q7Z6J2 96-193): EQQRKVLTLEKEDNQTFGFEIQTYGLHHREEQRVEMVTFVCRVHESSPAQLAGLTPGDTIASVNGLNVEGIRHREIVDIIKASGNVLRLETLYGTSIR
row,Binder,pKd
1,"PDGEMMEVLI [AMOTL1, Q8IY63]",below the threshold
2,"VISERNSTTV [C3AR1, Q16581]",4.37

# Target: NHERF4_4, Q86UT5
# Assay: holdup assay
# Set-up: key: below the threshold = too weak to quantify, mostly under pKd 3.1 to 4
# Details: plain residues with an end cap or a label only (N-terminal biotin on a linker: ado-ado)
# Chain of NHERF4_4, Q86UT5 (Q86UT5 464-550): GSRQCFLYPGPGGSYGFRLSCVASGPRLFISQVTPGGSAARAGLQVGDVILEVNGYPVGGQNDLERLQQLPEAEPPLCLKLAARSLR
row,Binder,pKd
1,"PDGEMMEVLI [AMOTL1, Q8IY63]",below the threshold
2,"VISERNSTTV [C3AR1, Q16581]",below the threshold

# Target: NHERF4_2, Q86UT5
# Assay: holdup assay
# Set-up: key: below the threshold = too weak to quantify, mostly under pKd 3.1 to 4
# Details: plain residues with an end cap or a label only (N-terminal biotin on a linker: ado-ado)
# Chain of NHERF4_2, Q86UT5 (Q86UT5 220-308): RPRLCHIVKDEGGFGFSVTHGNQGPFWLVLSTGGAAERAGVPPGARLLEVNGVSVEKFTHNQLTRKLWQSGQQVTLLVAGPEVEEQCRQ
row,Binder,pKd
1,"PDGEMMEVLI [AMOTL1, Q8IY63]",below the threshold
2,"VISERNSTTV [C3AR1, Q16581]",below the threshold

# Target: Inadl_10, Q8NI35
# Assay: holdup assay
# Set-up: key: below the threshold = too weak to quantify, mostly under pKd 3.1 to 4
# Details: plain residues with an end cap or a label only (N-terminal biotin on a linker: ado-ado)
# Chain of Inadl_10, Q8NI35 (Q8NI35 1673-1763): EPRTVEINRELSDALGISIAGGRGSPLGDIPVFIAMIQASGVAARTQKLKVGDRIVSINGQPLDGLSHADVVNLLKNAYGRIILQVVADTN
row,Binder,pKd
1,"PDGEMMEVLI [AMOTL1, Q8IY63]",below the threshold
2,"VISERNSTTV [C3AR1, Q16581]",below the threshold

# Target: LDB3, O75112
# Assay: holdup assay
# Set-up: key: below the threshold = too weak to quantify, mostly under pKd 3.1 to 4
# Details: plain residues with an end cap or a label only (N-terminal biotin on a linker: ado-ado)
# Chain of LDB3, O75112 (O75112 1-94): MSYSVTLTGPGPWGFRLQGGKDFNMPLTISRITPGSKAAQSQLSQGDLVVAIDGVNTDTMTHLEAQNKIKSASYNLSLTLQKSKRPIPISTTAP
row,Binder,pKd
1,"PDGEMMEVLI [AMOTL1, Q8IY63]",below the threshold
2,"VISERNSTTV [C3AR1, Q16581]",below the threshold

# Target: T7, CARD11, Q9BXL7
# Assay: holdup assay
# Set-up: key: below the threshold = too weak to quantify, mostly under pKd 3.1 to 4
# Details: plain residues with an end cap or a label only (N-terminal biotin on a linker: ado-ado)
row,Binder,pKd
1,"PDGEMMEVLI [AMOTL1, Q8IY63]",below the threshold
2,"VISERNSTTV [C3AR1, Q16581]",below the threshold

# Target: T8, ARHGEF11, O15085
# Assay: holdup assay
# Set-up: key: below the threshold = too weak to quantify, mostly under pKd 3.1 to 4
# Details: plain residues with an end cap or a label only (N-terminal biotin on a linker: ado-ado)
row,Binder,pKd
1,"PDGEMMEVLI [AMOTL1, Q8IY63]",below the threshold
2,"VISERNSTTV [C3AR1, Q16581]",4.45

# Target: TJP1_3, Q07157
# Assay: holdup assay
# Set-up: key: below the threshold = too weak to quantify, mostly under pKd 3.1 to 4
# Details: plain residues with an end cap or a label only (N-terminal biotin on a linker: ado-ado)
# Chain of TJP1_3, Q07157 (Q07157 416-512): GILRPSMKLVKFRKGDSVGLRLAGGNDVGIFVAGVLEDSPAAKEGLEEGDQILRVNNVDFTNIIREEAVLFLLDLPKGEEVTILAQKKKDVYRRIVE
row,Binder,pKd
1,"PDGEMMEVLI [AMOTL1, Q8IY63]",below the threshold
2,"VISERNSTTV [C3AR1, Q16581]",below the threshold

# Target: T9, GRIP1_3, Q9Y3R0
# Assay: holdup assay
# Set-up: key: below the threshold = too weak to quantify, mostly under pKd 3.1 to 4
# Details: plain residues with an end cap or a label only (N-terminal biotin on a linker: ado-ado)
row,Binder,pKd
1,"PDGEMMEVLI [AMOTL1, Q8IY63]",below the threshold
2,"VISERNSTTV [C3AR1, Q16581]",below the threshold

# Target: TJP1_2, Q07157
# Assay: holdup assay
# Set-up: key: below the threshold = too weak to quantify, mostly under pKd 3.1 to 4
# Details: plain residues with an end cap or a label only (N-terminal biotin on a linker: ado-ado)
# Chain of TJP1_2, Q07157 (Q07157 181-274): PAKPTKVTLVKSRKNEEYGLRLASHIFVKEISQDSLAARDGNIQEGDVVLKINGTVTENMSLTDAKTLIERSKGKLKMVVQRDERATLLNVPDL
row,Binder,pKd
1,"PDGEMMEVLI [AMOTL1, Q8IY63]",below the threshold
2,"VISERNSTTV [C3AR1, Q16581]",below the threshold

# Target: MAGI2_3, Q86UL8
# Assay: holdup assay
# Set-up: key: below the threshold = too weak to quantify, mostly under pKd 3.1 to 4
# Details: plain residues with an end cap or a label only (N-terminal biotin on a linker: ado-ado)
# Chain of MAGI2_3, Q86UL8 (Q86UL8 600-682): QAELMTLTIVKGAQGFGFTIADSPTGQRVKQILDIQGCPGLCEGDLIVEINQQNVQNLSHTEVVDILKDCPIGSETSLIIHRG
row,Binder,pKd
1,"PDGEMMEVLI [AMOTL1, Q8IY63]",below the threshold
2,"VISERNSTTV [C3AR1, Q16581]",below the threshold

# Target: T10, RHPN1, Q8TCX5
# Assay: holdup assay
# Set-up: key: below the threshold = too weak to quantify, mostly under pKd 3.1 to 4
# Details: plain residues with an end cap or a label only (N-terminal biotin on a linker: ado-ado)
row,Binder,pKd
1,"PDGEMMEVLI [AMOTL1, Q8IY63]",below the threshold
2,"VISERNSTTV [C3AR1, Q16581]",4.16

# Target: PDZRN4_1, Q6ZMN7
# Assay: holdup assay
# Set-up: key: below the threshold = too weak to quantify, mostly under pKd 3.1 to 4
# Details: plain residues with an end cap or a label only (N-terminal biotin on a linker: ado-ado)
# Chain of PDZRN4_1, Q6ZMN7 (Q6ZMN7 213-318): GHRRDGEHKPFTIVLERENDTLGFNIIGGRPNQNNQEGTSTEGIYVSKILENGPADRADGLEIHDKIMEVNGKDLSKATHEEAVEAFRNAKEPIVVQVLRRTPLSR
row,Binder,pKd
1,"PDGEMMEVLI [AMOTL1, Q8IY63]",below the threshold
2,"VISERNSTTV [C3AR1, Q16581]",3.63

# Reference: article PMC9482650, “Quantitative fragmentomics allow affinity mapping of interactomes” (Nature Communications, 2022)
